Assay results published in patent US20220364069A1, “METHOD FOR THE PRODUCTION OF AN ENZYMATIC COMPOSITION COMPRISING A RECOMBINANT ENDOPEPTIDASE” (NEMYSIS LIMITED, priority 2019, published 2022).

Assays:
[1] = system: trypsin; assay: Resistance of E40 to trypsin (suc-Ala-Ala-Pro-Phe-pNA cleavage); assay type: biochemical; details: pH 6 and 7; protease 1:2 (w/w) versus E40; 110 minutes, 37° C.
Experimental: The resistance of recombinant E40, obtained by the method of the invention, to the proteolytic activity of gastric (pepsin) and duodenal (trypsin) digestive proteases was further evaluated (FIG. 4), using suc-Ala-Ala-Pro-Phe-pNA as substrate. Aqueous solutions of E40 enzyme, alone or in combination with pepsin and/or trypsin (0.2 mg/ml E40, 0.1 mg/ml Pepsin or Trypsin), were diluted in citrate-phosphate buffer containing suc-Ala-Ala-Pro-Phe-pNA at pH 4, 4.5 and 5 for pepsin, and at pH 6 and 7 for trypsin. Final concentrations in reaction mix were: 200 μM substrate, 1-4 nM E40 for incubations at pH 4 to 5, or 4 nM and 7 nM for incubations at pH 6 or 7, respectively (E40 concentration was adjusted according to optimum pH). The digestive protease was maintained in the ratio 1:2 (w/w) versus E40.
Reactions (200 μl volume in 96-wells flat bottom ptiter plates) were protracted for 110 minutes at 37° C. Absorbance was monitored every 10 min for determining the enzymatic activity. Pepsin and trypsin without E40 were processed in the same way and tested in the same condition as reference control. Each analysis was carried out in duplicate.

[2] = system: gliadin; assay: Digestion of whole gliadin monitored by RP-HPLC; assay type: biochemical, Triticum aestivum; details: pH 4, 37° C., 30 min digestion
Experimental: The ability of E40 to hydrolyze harmful peptides in whole gliadin proteins was assessed by HPLC analysis (FIG. 6). Gliadin was extracted from whole flour of Triticum aestivum (Sagittario cultivar) according to Mamone et al^4. Gliadin (1 mg) was dissolved in 1 ml of 0.1 M ammonium acetate pH 4 and incubated with E40 enzymes (enzyme:substrate, 1:20), at 37° C. for different time points (0, 15, 30, 60, 120, 240 minutes). The enzymatic hydrolysis was stopped by boiling samples for 5 minutes. Samples were lyophilized and stored at −40° C. until further chemical analysis.
SDS-PAGE was performed on a Tetra-cell Mini-PROTEAN system (Bio-Rad, Milan, Italy). Digested gliadin samples were dissolved in Laemli buffer (0.125 M Tris-HCl pH 6.8, 5% SDS, 20% glycerol, 0.02% bromophenol blue) and loaded onto precast 12% acrylamide gel (Bio-Rad). Electrophoresis was carried out under non-reducing conditions, omitting β-mercaptoethanol in the Laemli buffer. Protein bands were visualized with silver blue (Coomassie Brilliant Blue G-250) and digitalized using a LABScan scanner (Amersham Bioscience/GE Healthcare, Uppsala, Sweden). RP-HPLC was carried out on a RP-HPLC using an HP 1100 Agilent Technology modular system (Palo Alto, Calif., USA). […] Eluent A was 0.1% TFA (v/v) in Milli-Q water, eluent B was 0.1% TFA (v/v) in acetonitrile. […] The column effluent was monitored at 220 and 280 nm with an UV-Vis detector. […]

[3] = system: peanut proteins; assay: In vitro digestion of peanut proteins (SDS-PAGE, HPLC); assay type: biochemical; details: 1:20 enzyme:substrate, up to 120 min
Experimental: Degradation of peanuts proteins incubated in the presence of recombinant E40 has been assessed by SDS-PAGE and HPLC analysis. Results are shown in FIG. 9 (A: SDS-PAGE; B: HPLC analysis).

[4] = system: gliadin (QPQLPY sequence); assay: Gluten content of gliadin digests by Elisa-G12; assay type: biochemical, wheat
Experimental: Next it has been evaluated whether recombinant E40 enzymatic activity efficiently neutralizes: i) the capacity of gluten proteins to bind G12 antibodies, and ii) the stimulation of a T-cell-mediated immune response, measured by IFN-γ release. To this purpose, gliadin proteins were suspended in 1 ml of 0.1M ammonium acetate and digested with E40 alone, or with E40 co-incubated with the gastrointestinal proteases, pepsin and trypsin/chymotrypsin, at different pHs and time points, as detailed in Table 1.
All enzymes were added in w/w ratio 1:20 (enzyme:protein) and incubated at 37° C., at indicated pH and incubation time. E40/pepsin/chymotrypsin-digested gliadins were deamidated by tTGase (Sigma Aldrich), as previously described^4. Briefly, the enzymatic gliadin digests (500 μg/ml) were incubated with 2 U of guinea pig tTG (T-5398, Sigma, St. Louis, Mo., USA) at 37° C. for 2 hours in PBS with 1 mmol/L CaCl2.
To estimate the effect of E40 digestion on the immunological potential of wheat, gluten content of samples A-L was determined by monoclonal antibodies specific for QPQLPY sequence (Elisa-G12)^10.

B1: E40: Actinoallomurus endopeptidase with glutenase activity, sequence comprising SEQ ID NO: 1; recombinant histidine-tagged form SEQ ID NO: 2 from S. lividans (protein)
chain: AAPSGLSPANLQSAYKLPSSTAGSGQTVAIVDAYDAPTAEADLNVYRSQFGLGACTTANGCFKKVDQNGGTSYPRKDGGWAQEISLDLDMVSAVCPNCKIVLVEAKTNSFANLGTAENTAASLANVISNSYGGSDASDASYGSYYNHPGKAITVSSGDAGYGVEYPASSHYVTAVGGTSLRTASTSRGWSETAWSGAGSGCSAYNTALSGQSGLTGCSRRAVADVSAVADPATGVAVYDSTAYQGQSGWMVFGGTSVAAPIIGGVYGLAANAASIDNNYPYAHTSSLFDVTSGSNGTCTTTKWCTAGTGWDGPTGLGTPNGTGAFGHHHHHH
modifications: Actinoallomurus
- E40 cleaving activity in presence of trypsin [1]: unaffected
- peaks assigned to gliadins after 30 min [2]: markedly reduced
- peanut protein digestion [3]: degradation of peanut proteins
- pH of maximal activity (purified enzyme preparation, pH range 2 to 8): 5
- residual activity at pH 3 (purified enzyme preparation, relative to pH 5): ~40%
- enzyme activity of purified sample (purified sample of Example 4, pH 5, 37° C.): 41000 U/mg protein
- gluten content (Elisa-G12) ([4]; sample A: E40 (1 h) (pH 4)): 1.72 ppm (ng/mL)
- gluten content (Elisa-G12) ([4]; sample B: E40 (2 h) (pH 4)): 2.26 ppm (ng/mL)
- gluten content (Elisa-G12) ([4]; sample C: E40 + Pepsin (1 h) (pH 4)): 5.23 ppm (ng/mL)
- gluten content (Elisa-G12) ([4]; sample D: E40 + Pepsin (2 h) (pH 4)): 5.42 ppm (ng/mL)
- gluten content (Elisa-G12) ([4]; sample E: E40 + Pepsin (2 h) (pH 4), Trypsin + Chymotrypsin (2 h) (pH 6)): 4.09 ppm (ng/mL)
- gluten content (Elisa-G12) ([4]; sample F: E40 + Pepsin (2 h) (pH 4), Trypsin + Chymotrypsin (4 h) (pH 6)): 2.68 ppm (ng/mL)
- gluten content (Elisa-G12) ([4]; sample G: E40 + Pepsin (1 h) (pH 4), Trypsin + Chymotrypsin (2 h) (pH 6)): 1.68 ppm (ng/mL)
- gluten content (Elisa-G12) ([4]; sample H: E40 + Pepsin (1 h) (pH 4), Trypsin + Chymotrypsin (4 h) (pH 6)): 2.05 ppm (ng/mL)
- gluten content of E40 digested samples ([4]; samples from A to H): below 20 ppm
